{"source": "paper PMC7395175", "parents": {"B1": {"name": "HA-tagged zDHHC5 [murine] / human PLM expressed in HEK-derived FT-293 cells [human] (parent)", "chain 1": "MPAESGKRFKPSKYVPVSAAAIFLVGATTLFFAFTCPGLSLNVSPAVPIYNAIMFLFVLANFSMATFMDPGIFPRAEEDEDKEDDFRAPLYKTVEIKGIQVRMKWCATCRFYRPPRCSHCSVCDNCVEEFDHHCPWVNNCIGRRNYRYFFLFLLSLTAHIMGVFGFGLLYVLYHIEELSGVRTAVTMAVMCVAGLFFIPVAGLTGFHVVLVARGRTTNEQVTGKFRGGVNPFTNGCCNNVSRVLCSSPAPRYLGRPKKEKTIVIRPPFLRPEVSDGQITVKIMDNGIQGELRRTKSKGSLEITESQSADAEPPPPPKPDLSRYTGLRTHLSLATNEDSSLLGKDSPPTPTMYKYRPGYSSSSTSAAMPHSSSAKLSRGDSLKEPTSIADSSRHPSYRSEPSLEPESFRSPTFGKSFHFDPLSSGSRSSSLKSAQGTGFELGQLQSIRSEGTTSTSYKSLANQTRNGSLSYDSLLTPSDSPDFESVQAGPEPDPPLGYTSPFLSARLAQQREAERHPRLLPTGPPHREPSPVRYDNLSRHIVASLQEREKLLRQSPPLAGREEEPGLGDSGIQSTPGSGHAPRTSSSSDDSKRSPLSKTPLGRPAVPRFGKPDGLRSRGLGSPEPGTTAPYLGRSISYSSQKAPSGVSETEEVALQPLLTPKDEVQLKTTYSKSNGQPKSIGSASPGPGQPPLSSPTRGGVKKVSGVGGTTYEISV", "chain 2": "ESPKEHDPFTYDYQSLQIGGLVIAGILFILGILIVLSRRCRCKFNQQQRTGEPDEEEGTFRSSIRRLSTRRR"}}, "data": [{"variants_of": "B1", "experiment": "co-immunoprecipitation (HA IP, Western blot quantified)", "conditions": "with human PLM expressed in HEK-derived FT-293 cells [human]; n = 3; read off a plot", "units": {"response": "PLM/HA"}, "values": [{"variant": "chain 1 C236A C237A", "response": 0.79}]}]}
